Molecular target: autotaxin (ENPP2/NPP2) (Homo sapiens) (UniProt Q13822)
Test: inhibition
[1] = NPP2 assay, no inhibition up to 1.0 uM

## ACACTCACAGGCGCTGGNNNNNNNNNNNNNNNNNNNNNNNNNNNNNNCGTGCATGGCCGCTAGT [DNA pool (SEQ 17)]
[1]
  IC50: > 1000 nM

## GTGGTCTAGCTGTACTCNNNNNNNNNNNNNNNNNNNNNNNNNNNNNNNNNNNNNNNNCCACAGTCAACGAGCTA [40N DNA pool (SEQ 1)]
LysoPLD assay, table says 40N only (which pool not stated)
  IC50: > 1000 nM
[1]
  IC50: > 1000 nM

— patent US20170137818
